Starred links: 1 amine or outer side, 2 acyl side, 3 side chain; linkers in the order of their positions; H or OH if unused. Non-standard residues stand in square brackets, D forms with d. *: point of attachment. Asn(Me) = N-omega-methylasparagine, CNC(=O)C[C@H](N[*:1])C(=O)[*:2]; 4‑guanidinomethylbenzoyl = N=C(N)NCc1ccc(C(=O)*)cc1; Phe(4-F) = N[C@@H](Cc1ccc(F)cc1)C(=O)O; Cyclohexanecarbonyl = O=C(C1CCCCC1)*; Ala(cPr) = N[C@@H](CC1CC1)C(=O)O; Cha = N[C@@H](CC1CCCCC1)C(=O)O; Isobutyryl = CC(C)C(=O)*; Nle = CCCC[C@H](N)C(=O)O; Abu = CC[C@H](N)C(=O)O; Aib = CC(C)(N)C(=O)O
Columns and labels:
[1] = biological target: human Y2 receptor (human) (UniProt P49146); experiment: RBA: [125I]-PYY displacement, hY2R/CHO membranes
[2] = biological target: human Y2 receptor (human) (UniProt P49146); experiment: cell-based or functional assay

Chain of human Y2 receptor (human) (P49146 whole entry): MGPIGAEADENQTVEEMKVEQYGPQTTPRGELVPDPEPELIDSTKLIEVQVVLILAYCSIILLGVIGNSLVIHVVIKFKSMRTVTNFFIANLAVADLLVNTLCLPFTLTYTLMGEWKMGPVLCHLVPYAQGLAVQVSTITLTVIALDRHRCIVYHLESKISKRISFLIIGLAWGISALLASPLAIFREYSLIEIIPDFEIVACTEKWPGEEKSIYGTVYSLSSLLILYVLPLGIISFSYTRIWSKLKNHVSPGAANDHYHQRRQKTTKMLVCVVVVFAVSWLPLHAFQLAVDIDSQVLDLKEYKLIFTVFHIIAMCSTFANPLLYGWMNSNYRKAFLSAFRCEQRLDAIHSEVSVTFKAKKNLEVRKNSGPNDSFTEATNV

| Binder | IC50 Ratio (vs PYY(3-36)) [1] | GBA EC50 Ratio (vs PYY(3-36)), [35S]GTPγS [2] |
| --- | --- | --- |
| Cyclohexanecarbonyl-R[Nle][Cha][Cha]NL[Aib]TRQR[Cha]-NH2 (SMILES CCCC[C@H](NC(=O)[C@H](CCCNC(=N)N)NC(=O)C1CCCCC1)C(=O)N[C@@H](CC1CCCCC1)C(=O)N[C@@H](CC1CCCCC1)C(=O)N[C@@H](CC(N)=O)C(=O)N[C@@H](CC(C)C)C(=O)NC(C)(C)C(=O)N[C@H](C(=O)N[C@@H](CCCNC(=N)N)C(=O)N[C@@H](CCC(N)=O)C(=O)N[C@@H](CCCNC(=N)N)C(=O)N[C@@H](CC1CCCCC1)C(N)=O)[C@@H](C)O) [Cyclohexanecarbonyl-[Nle26, Cha27,28,36, Aib31]-PYY(25-36)] | 50 | 33 |
| Isobutyryl-R[Abu][Cha][Cha]N[Ala(cPr)][Aib]TRQR[Cha]-NH2 (SMILES CC[C@H](NC(=O)[C@H](CCCNC(=N)N)NC(=O)C(C)C)C(=O)N[C@@H](CC1CCCCC1)C(=O)N[C@@H](CC1CCCCC1)C(=O)N[C@@H](CC(N)=O)C(=O)N[C@@H](CC1CC1)C(=O)NC(C)(C)C(=O)N[C@H](C(=O)N[C@@H](CCCNC(=N)N)C(=O)N[C@@H](CCC(N)=O)C(=O)N[C@@H](CCCNC(=N)N)C(=O)N[C@@H](CC1CCCCC1)C(N)=O)[C@@H](C)O) [Isobutanoyl-[Abu26, Cha27,28,36, Ala(cPr)30, Aib31]-PYY(25-36)] | 17 | 12 |
| {4‑guanidinomethylbenzoyl}-[Nle]H[Cha][Cha]NR[Cha]TRQR[Cha]-NH2 (SMILES CCCC[C@H](NC(=O)c1ccc(CNC(=N)N)cc1)C(=O)N[C@@H](Cc1c[nH]cn1)C(=O)N[C@@H](CC1CCCCC1)C(=O)N[C@@H](CC1CCCCC1)C(=O)N[C@@H](CC(N)=O)C(=O)N[C@@H](CCCNC(=N)N)C(=O)N[C@@H](CC1CCCCC1)C(=O)N[C@H](C(=O)N[C@@H](CCCNC(=N)N)C(=O)N[C@@H](CCC(N)=O)C(=O)N[C@@H](CCCNC(=N)N)C(=O)N[C@@H](CC1CCCCC1)C(N)=O)[C@@H](C)O) [4-Guanidinomethylbenzoyl-[Nle25, Cha27,28,31,36, Arg30]-PYY(25-36)] | 7.2 | 4.5 |
| Cyclohexanecarbonyl-RH[Cha]I[Asn(Me)]LITRQR[Cha]-NH2 (SMILES CC[C@H](C)[C@H](NC(=O)[C@H](CC1CCCCC1)NC(=O)[C@H](Cc1c[nH]cn1)NC(=O)[C@H](CCCNC(=N)N)NC(=O)C1CCCCC1)C(=O)N[C@@H](CC(=O)NC)C(=O)N[C@@H](CC(C)C)C(=O)N[C@H](C(=O)N[C@H](C(=O)N[C@@H](CCCNC(=N)N)C(=O)N[C@@H](CCC(N)=O)C(=O)N[C@@H](CCCNC(=N)N)C(=O)N[C@@H](CC1CCCCC1)C(N)=O)[C@@H](C)O)[C@@H](C)CC) [Cyclohexanecarbonyl-[Cha27,36, Ile28,31, Asn(Me)29]-PYY(25-36)] | 76 | 37 |
| Cyclohexanecarbonyl-RH[Cha][Ala(cPr)]NL[Aib]TRQR[Cha]-NH2 (SMILES CC(C)C[C@H](NC(=O)[C@H](CC(N)=O)NC(=O)[C@H](CC1CC1)NC(=O)[C@H](CC1CCCCC1)NC(=O)[C@H](Cc1c[nH]cn1)NC(=O)[C@H](CCCNC(=N)N)NC(=O)C1CCCCC1)C(=O)NC(C)(C)C(=O)N[C@H](C(=O)N[C@@H](CCCNC(=N)N)C(=O)N[C@@H](CCC(N)=O)C(=O)N[C@@H](CCCNC(=N)N)C(=O)N[C@@H](CC1CCCCC1)C(N)=O)[C@@H](C)O) [Cyclohexanecarbonyl-[Cha27,36, Ala(cPr)28, Aib31]-PYY(25-36)] | 15 | 23 |
| Isobutyryl-R[Abu][Cha][Phe(4-F)]NL[Aib]TRQR[Cha]-NH2 (SMILES CC[C@H](NC(=O)[C@H](CCCNC(=N)N)NC(=O)C(C)C)C(=O)N[C@@H](CC1CCCCC1)C(=O)N[C@@H](Cc1ccc(F)cc1)C(=O)N[C@@H](CC(N)=O)C(=O)N[C@@H](CC(C)C)C(=O)NC(C)(C)C(=O)N[C@H](C(=O)N[C@@H](CCCNC(=N)N)C(=O)N[C@@H](CCC(N)=O)C(=O)N[C@@H](CCCNC(=N)N)C(=O)N[C@@H](CC1CCCCC1)C(N)=O)[C@@H](C)O) [Isobutanoyl-[Abu26, Cha27,36, Phe(4F)28, Aib31]-PYY(25-36)] | 23 | 20 |
